Blank lines part the entries; values can stand above or below the substance they belong to.
How the values were obtained:
D3H44 light chain F116A [1] = experiment: LCCA (SPR), competitor L1 WT
[2] = biological target: D3H44 light chain F118W_V133S; experiment: LCCA (SPR), competitor L1 F116A
[3] = biological target: D3H44 light chain, wild type; experiment: LCCA (SPR), competitor L2 F116A
[4] = biological target: D3H44 light chain F118W_V133S; experiment: LCCA (SPR), competitor L1 F116S
D3H44 light chain F116A [5] = experiment: LCCA (SPR), competitor L2 F118W_V133S
D3H44 light chain F116S = experiment: LCCA (SPR), competitor L2 F118W_V133S
D3H44 light chain F98L [6] = experiment: LCCA (SPR), competitor L1 WT
[7] = biological target: D3H44 light chain, wild type; experiment: LCCA (SPR), competitor L2 F98L
D3H44 light chain S176L = experiment: LCCA (SPR), competitor L2 WT
[8] = biological target: D3H44 light chain, wild type; experiment: LCCA (SPR), competitor L1 S176L
D3H44 light chain Y87G = experiment: LCCA (SPR), competitor L2 P44W
D3H44 light chain P44W [9] = experiment: LCCA (SPR), competitor L1 Y87G
D3H44 light chain Q38D = experiment: LCCA (SPR), competitor L1 Q38R
[10] = biological target: D3H44 light chain Q38N_T85K; experiment: LCCA (SPR), competitor L1 Q38N_T85E
[11] = biological target: D3H44 light chain Q38N_T85E; experiment: LCCA (SPR), competitor L2 Q38N_T85K
D3H44 light chain Q38R = experiment: LCCA (SPR), competitor L2 Q38D
D3H44 light chain F98A [12] = experiment: LCCA (SPR), competitor L1 Q38R
D3H44 light chain P44W [13] = experiment: LCCA (SPR), competitor L2 F98A
D3H44 light chain F98L [14] = experiment: LCCA (SPR), competitor L2 P44W
D3H44 light chain P44W [15] = experiment: LCCA (SPR), competitor L1 F98L
D3H44 light chain P44W [16] = experiment: LCCA (SPR), competitor L2 F98W
D3H44 light chain F98A [17] = experiment: LCCA (SPR), competitor L1 P44W
D3H44 light chain F98W [18] = experiment: LCCA (SPR), competitor L1 P44W
D3H44 light chain F98L [19] = experiment: LCCA (SPR), competitor L1 P44W
D3H44 light chain P44W [20] = experiment: LCCA (SPR), competitor L2 F98L
[21] = biological target: D3H44 light chain L89R_F98T; experiment: LCCA (SPR), competitor L2 WT
[22] = biological target: D3H44 light chain, wild type; experiment: LCCA (SPR), competitor L1 L89R_F98T
[23] = biological target: D3H44 light chain L89R_F98W; experiment: LCCA (SPR), competitor L2 F98Y
D3H44 light chain F98Y = experiment: LCCA (SPR), competitor L1 L89R_F98W
D3H44 light chain F98W [24] = experiment: LCCA (SPR), competitor L1 F98L
D3H44 light chain F98L [25] = experiment: LCCA (SPR), competitor L2 F98W

Sequence of D3H44 light chain Y87G (light, as listed by the source limits assumed): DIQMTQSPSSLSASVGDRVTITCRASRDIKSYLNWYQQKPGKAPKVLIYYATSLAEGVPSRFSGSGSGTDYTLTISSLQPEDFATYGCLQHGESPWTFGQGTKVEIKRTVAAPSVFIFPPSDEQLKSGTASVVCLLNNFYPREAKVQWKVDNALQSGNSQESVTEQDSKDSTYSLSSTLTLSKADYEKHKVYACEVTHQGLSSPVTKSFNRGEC
Sequence of D3H44 light chain Q38N_T85E (light, as listed by the source limits assumed): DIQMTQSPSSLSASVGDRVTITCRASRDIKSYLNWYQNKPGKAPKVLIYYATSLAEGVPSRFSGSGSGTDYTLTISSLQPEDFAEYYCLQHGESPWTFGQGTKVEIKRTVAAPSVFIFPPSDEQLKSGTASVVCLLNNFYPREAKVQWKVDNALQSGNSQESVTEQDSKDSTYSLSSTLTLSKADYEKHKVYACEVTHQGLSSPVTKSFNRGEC
Sequence of D3H44 light chain, wild type (light, as listed by the source): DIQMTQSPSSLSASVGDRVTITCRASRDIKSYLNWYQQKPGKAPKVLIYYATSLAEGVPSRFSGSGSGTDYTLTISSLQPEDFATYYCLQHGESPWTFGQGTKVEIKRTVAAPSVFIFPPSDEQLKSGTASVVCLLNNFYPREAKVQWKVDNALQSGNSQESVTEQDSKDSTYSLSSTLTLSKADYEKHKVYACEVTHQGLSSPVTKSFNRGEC
Sequence of D3H44 light chain Q38N_T85K (light, as listed by the source limits assumed): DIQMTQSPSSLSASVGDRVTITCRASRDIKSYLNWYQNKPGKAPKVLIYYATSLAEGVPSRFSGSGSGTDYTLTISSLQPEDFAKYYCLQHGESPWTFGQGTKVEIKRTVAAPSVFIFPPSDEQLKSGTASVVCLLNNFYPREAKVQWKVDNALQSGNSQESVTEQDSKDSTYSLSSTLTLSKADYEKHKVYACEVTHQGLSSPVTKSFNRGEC
Sequence of D3H44 light chain F98Y (light, as listed by the source limits assumed): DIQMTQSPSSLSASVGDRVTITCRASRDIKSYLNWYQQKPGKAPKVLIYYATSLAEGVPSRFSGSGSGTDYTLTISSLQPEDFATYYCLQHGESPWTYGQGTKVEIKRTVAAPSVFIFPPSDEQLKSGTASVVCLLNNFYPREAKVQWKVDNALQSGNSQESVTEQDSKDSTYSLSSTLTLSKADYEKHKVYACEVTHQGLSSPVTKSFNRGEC
Sequence of D3H44 light chain Q38R (light, as listed by the source): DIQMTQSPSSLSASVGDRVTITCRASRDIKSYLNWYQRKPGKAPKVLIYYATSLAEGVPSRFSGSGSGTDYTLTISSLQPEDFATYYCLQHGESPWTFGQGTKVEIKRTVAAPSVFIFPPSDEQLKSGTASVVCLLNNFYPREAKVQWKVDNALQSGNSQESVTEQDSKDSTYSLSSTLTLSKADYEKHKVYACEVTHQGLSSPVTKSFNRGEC
Sequence of D3H44 light chain L89R_F98T (light, as listed by the source limits assumed): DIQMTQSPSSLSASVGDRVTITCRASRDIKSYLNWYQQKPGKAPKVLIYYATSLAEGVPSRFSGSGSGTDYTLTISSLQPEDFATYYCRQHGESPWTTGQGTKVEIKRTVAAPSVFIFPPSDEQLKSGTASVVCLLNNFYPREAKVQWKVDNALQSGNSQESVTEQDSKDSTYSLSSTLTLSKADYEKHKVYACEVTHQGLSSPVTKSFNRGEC
Sequence of D3H44 light chain Q38D (light, as listed by the source limits assumed): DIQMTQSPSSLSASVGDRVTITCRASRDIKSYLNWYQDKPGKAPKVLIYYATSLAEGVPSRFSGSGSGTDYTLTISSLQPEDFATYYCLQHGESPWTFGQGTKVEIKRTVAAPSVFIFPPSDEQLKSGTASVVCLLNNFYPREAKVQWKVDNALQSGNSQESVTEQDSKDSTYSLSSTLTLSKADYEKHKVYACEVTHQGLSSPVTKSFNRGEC
Sequence of D3H44 light chain L89R_F98W (light, as listed by the source): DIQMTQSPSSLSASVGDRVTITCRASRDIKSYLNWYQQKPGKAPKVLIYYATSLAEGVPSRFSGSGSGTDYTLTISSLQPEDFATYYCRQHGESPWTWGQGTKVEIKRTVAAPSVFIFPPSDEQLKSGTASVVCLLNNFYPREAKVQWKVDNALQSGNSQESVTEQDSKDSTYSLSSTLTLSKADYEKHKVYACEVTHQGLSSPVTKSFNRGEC
Sequence of D3H44 light chain S176L (light, as listed by the source): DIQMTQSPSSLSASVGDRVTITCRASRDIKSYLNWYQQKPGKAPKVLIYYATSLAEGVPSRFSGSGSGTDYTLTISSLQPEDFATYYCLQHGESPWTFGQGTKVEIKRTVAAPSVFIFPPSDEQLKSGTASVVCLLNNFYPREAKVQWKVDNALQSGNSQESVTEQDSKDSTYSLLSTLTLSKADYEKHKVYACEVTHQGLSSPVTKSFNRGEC

Substance: D3H44 heavy chain (Fab format) F100W
- H2 L2 of H2 L2:H2 L1 (screen) (D3H44 light chain F98L [6]): 56.8
- H2 L2 of H2 L2:H2 L1 (verification) (D3H44 light chain F98L [6]): 38.9
- H2 L1 of H2 L2:H2 L1 (screen) [7]: 29.7
- H2 L1 of H2 L2:H2 L1 (verification) [7]: 44.9

Substance: D3H44 heavy chain (Fab format) F174V_S188L
- H2 L1 of H2 L2:H2 L1 (screen) (D3H44 light chain S176L): 5.94
- H2 L2 of H2 L2:H2 L1 (screen) [8]: 103

Substance: D3H44 heavy chain (Fab format) Q39D
- H1 L2 of H1 L1:H1 L2 (screen) (D3H44 light chain Q38D): 34.5
- H1 L2 of H1 L1:H1 L2 (verification) (D3H44 light chain Q38D): 31.1
- H2 L2 of H2 L2:H2 L1 (screen) [10]: 71.7
- H2 L1 of H2 L2:H2 L1 (screen) [11]: 27.4
- H1 L1 of H1 L1:H1 L2 (screen) (D3H44 light chain Q38R): 66.9
- H1 L1 of H1 L1:H1 L2 (verification) (D3H44 light chain Q38R): 61.8

Substance: D3H44 heavy chain (Fab format) Q39E
- H1 L2 of H1 L1:H1 L2 (screen) (D3H44 light chain F98A [12]): 29.7
- H1 L2 of H1 L1:H1 L2 (verification) (D3H44 light chain F98A [12]): 7.2

Substance: D3H44 heavy chain (Fab format) S188L
- H2 L1 of H2 L2:H2 L1 (screen) (D3H44 light chain S176L): 9.32
- H2 L2 of H2 L2:H2 L1 (screen) [8]: 92.5

Substance: D3H44 heavy chain (Fab format) V37E
- H1 L1 of H1 L1:H1 L2 (screen) [21]: 54.1
- H1 L1 of H1 L1:H1 L2 (verification) [21]: 90.9
- H1 L2 of H1 L1:H1 L2 (screen) [22]: 25
- H1 L2 of H1 L1:H1 L2 (verification) [22]: 16.5

Substance: D3H44 heavy chain (Fab format) V37I_F100W
- H2 L2 of H2 L2:H2 L1 (screen) (D3H44 light chain F98L [19]): 67.3
- H2 L2 of H2 L2:H2 L1 (verification) (D3H44 light chain F98L [19]): 30.5
- H2 L1 of H2 L2:H2 L1 (screen) (D3H44 light chain P44W [20]): 26.9
- H2 L1 of H2 L2:H2 L1 (verification) (D3H44 light chain P44W [20]): 47.9

Substance: D3H44 heavy chain (Fab format) V37S_A97K
- H2 L1 of H2 L2:H2 L1 (screen) [23]: 0.5
- H2 L1 of H2 L2:H2 L1 (verification) [23]: 11.7
- H2 L2 of H2 L2:H2 L1 (screen) (D3H44 light chain F98Y): 71.6
- H2 L2 of H2 L2:H2 L1 (verification) (D3H44 light chain F98Y): 65.6

Substance: D3H44 heavy chain (Fab format) V37W_W103F
- H1 L2 of H1 L1:H1 L2 (screen) (D3H44 light chain F98W [24]): 14.8
- H1 L2 of H1 L1:H1 L2 (verification) (D3H44 light chain F98W [24]): 27.7
- H1 L1 of H1 L1:H1 L2 (screen) (D3H44 light chain F98L [25]): 64.2
- H1 L1 of H1 L1:H1 L2 (verification) (D3H44 light chain F98L [25]): 38.2

Substance: D3H44 heavy chain (Fab format) V37W_W103H
- H1 L1 of H1 L1:H1 L2 (screen) (D3H44 light chain F98L [14]): 48.3
- H1 L1 of H1 L1:H1 L2 (verification) (D3H44 light chain F98L [14]): 56
- H1 L2 of H1 L1:H1 L2 (screen) (D3H44 light chain F98W [24]): 30
- H1 L2 of H1 L1:H1 L2 (verification) (D3H44 light chain F98W [24]): 30.5
- H1 L2 of H1 L1:H1 L2 (screen) (D3H44 light chain P44W [15]): 29.2
- H1 L2 of H1 L1:H1 L2 (verification) (D3H44 light chain P44W [15]): 21.2
- H1 L1 of H1 L1:H1 L2 (screen) (D3H44 light chain F98L [25]): 57.2
- H1 L1 of H1 L1:H1 L2 (verification) (D3H44 light chain F98L [25]): 62.3

Substance: D3H44 heavy chain (Fab format) V190G
- H1 L2 of H1 L1:H1 L2 (screen) [2]: 35.3
- H1 L2 of H1 L1:H1 L2 (screen) [4]: 24.1
- H1 L2 of H1 L1:H1 L2 (verification) [4]: 50.8
- H1 L1 of H1 L1:H1 L2 (screen) (D3H44 light chain F116A [5]): 55.1
- H1 L1 of H1 L1:H1 L2 (screen) (D3H44 light chain F116S): 78.2
- H1 L1 of H1 L1:H1 L2 (verification) (D3H44 light chain F116S): 25.9

More lines, now with the values ahead:

- H2 L2 of H2 L2:H2 L1 (screen) (D3H44 light chain F116A [1]): 66.9
- H2 L2 of H2 L2:H2 L1 (verification) (D3H44 light chain F116A [1]): 43
- H1 L2 of H1 L1:H1 L2 (screen) [2]: 33.4
- H1 L2 of H1 L1:H1 L2 (verification) [2]: 0.722
- H2 L1 of H2 L2:H2 L1 (screen) [3]: 21.1
- H2 L1 of H2 L2:H2 L1 (verification) [3]: 22.3
- H1 L2 of H1 L1:H1 L2 (screen) [4]: 15.7
- H1 L2 of H1 L1:H1 L2 (verification) [4]: 20.2
- H1 L1 of H1 L1:H1 L2 (screen) (D3H44 light chain F116A [5]): 68.7
- H1 L1 of H1 L1:H1 L2 (verification) (D3H44 light chain F116A [5]): 83.8
- H1 L1 of H1 L1:H1 L2 (screen) (D3H44 light chain F116S): 84.8
- H1 L1 of H1 L1:H1 L2 (verification) (D3H44 light chain F116S): 55.4
Substance: D3H44 heavy chain (Fab format) A139W_V190S

- H1 L1 of H1 L1:H1 L2 (screen) (D3H44 light chain Y87G): 54.5
- H1 L1 of H1 L1:H1 L2 (verification) (D3H44 light chain Y87G): 58.1
- H1 L2 of H1 L1:H1 L2 (screen) (D3H44 light chain P44W [9]): 23.9
- H1 L2 of H1 L1:H1 L2 (verification) (D3H44 light chain P44W [9]): 31
Substance: D3H44 heavy chain (Fab format) L45W

- H1 L2 of H1 L1:H1 L2 (screen) [10]: 30.1
- H1 L2 of H1 L1:H1 L2 (verification) [10]: 21.7
- H1 L1 of H1 L1:H1 L2 (screen) [11]: 54.8
- H1 L1 of H1 L1:H1 L2 (verification) [11]: 66.5
Substance: D3H44 heavy chain (Fab format) Q39K

- H1 L1 of H1 L1:H1 L2 (screen) (D3H44 light chain P44W [13]): 67.5
- H1 L1 of H1 L1:H1 L2 (verification) (D3H44 light chain P44W [13]): 47.1
- H2 L1 of H2 L2:H2 L1 (screen) (D3H44 light chain Y87G): 18.9
- H2 L1 of H2 L2:H2 L1 (screen) (D3H44 light chain F98L [14]): 6.38
- H2 L2 of H2 L2:H2 L1 (screen) (D3H44 light chain P44W [15]): 66.5
- H1 L1 of H1 L1:H1 L2 (screen) (D3H44 light chain P44W [16]): 53.6
- H2 L2 of H2 L2:H2 L1 (screen) (D3H44 light chain P44W [9]): 53.1
- H1 L2 of H1 L1:H1 L2 (screen) (D3H44 light chain F98A [17]): 8.79
- H1 L2 of H1 L1:H1 L2 (verification) (D3H44 light chain F98A [17]): 12.3
- H1 L2 of H1 L1:H1 L2 (screen) (D3H44 light chain F98W [18]): 19.6
Substance: D3H44 heavy chain (Fab format) V37A_W103H

- H1 L1 of H1 L1:H1 L2 (screen) (D3H44 light chain P44W [13]): 58.9
- H2 L1 of H2 L2:H2 L1 (screen) (D3H44 light chain P44W [16]): 18.6
- H2 L1 of H2 L2:H2 L1 (verification) (D3H44 light chain P44W [16]): 44.7
- H1 L2 of H1 L1:H1 L2 (screen) (D3H44 light chain F98A [17]): 25.3
- H2 L2 of H2 L2:H2 L1 (screen) (D3H44 light chain F98L [19]): 54.8
- H2 L2 of H2 L2:H2 L1 (verification) (D3H44 light chain F98L [19]): 52
- H2 L2 of H2 L2:H2 L1 (screen) (D3H44 light chain F98W [18]): 53
- H2 L2 of H2 L2:H2 L1 (verification) (D3H44 light chain F98W [18]): 23.3
- H2 L1 of H2 L2:H2 L1 (screen) (D3H44 light chain P44W [20]): 22.8
- H2 L1 of H2 L2:H2 L1 (verification) (D3H44 light chain P44W [20]): 23
Substance: D3H44 heavy chain (Fab format) V37A_W103V

— patent US20190085055A1
